# Source: paper PMC9352680, “A comprehensive thermodynamic model for RNA binding by the Saccharomyces cerevisiae Pumilio protein PUF4”
# T1: PUF4 RNA-binding domain (Saccharomyces cerevisiae, UniProt P25339 537-888)
# T1 sequence: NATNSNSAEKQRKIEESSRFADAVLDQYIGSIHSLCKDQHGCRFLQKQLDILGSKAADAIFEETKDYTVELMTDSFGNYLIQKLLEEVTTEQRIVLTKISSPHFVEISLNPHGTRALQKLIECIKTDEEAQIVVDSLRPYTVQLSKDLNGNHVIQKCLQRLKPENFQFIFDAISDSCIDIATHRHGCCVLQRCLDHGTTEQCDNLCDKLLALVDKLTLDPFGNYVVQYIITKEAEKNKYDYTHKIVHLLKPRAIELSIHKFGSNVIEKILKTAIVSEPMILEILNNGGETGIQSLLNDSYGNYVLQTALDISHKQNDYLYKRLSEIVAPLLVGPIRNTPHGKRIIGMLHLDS
# Molecular target: T1, PUF4 RNA-binding domain
# Assay: Mg; RNA-MaP; 20 mM Na-HEPES pH 7.4, 30 mM KOAc, 0.75 mM MgCl2, 0.1% Tween-20, 5% glycerol, 0.1 mg/mL BSA, 2 mM DTT; 25 C; 0.0125-409.6 nM protein
# Conditions: tags: N-His6-TEV cleaved; C-SNAP kept, Cy3B-labelled; label: tethered on chip by stalled RNA polymerase
row,Binder,Kd [nM]
1,UCUCUUCUUAUAUUAUCUCUU (ssRNA) [Ib_S1_P4E.1_K4.1_C4.1_H4.1_[T1C]_[G2T]_A4.1_F4.1_T4.1],685
2,UCUCUUCAUAUAUUAUCUCUU (ssRNA) [Ib_S1_P4E.1_K4.1_C4.1_H4.1_[T1C]_[G2A]_A4.1_F4.1_T4.1],487
3,ACAAACGGCUAUAUAUAUAACAAAC (ssRNA) [Id_i_S3_P3E.6_K3.2_C3.3_[T-3G]_[C-2G]_[T-1C]_H3.2_A3.1_F3.1_T3.2],1360
4,ACAAACAGUAUAUAUAUAACAAAC (ssRNA) [Id_i_S3_P3E.3_K3.2_C3.2_[C-2A]_[T-1G]_H3.2_A3.1_F3.1_T3.2],385
5,UCUCUUCCUAUAUUAUCUCUU (ssRNA) [Ib_S1_P4E.1_K4.1_C4.1_H4.1_[T1C]_[G2C]_A4.1_F4.1_T4.1],1290
6,ACAAACUCACACUAUAUAACAAAC (ssRNA) [Id_i_S3_P3E.4_K3.3_C3.2_[C-2T]_[T-1C]_H3.3_A3.1_F3.1_T3.2],> 2300
7,ACAAACACACACUAUAUAACAAAC (ssRNA) [Id_i_S3_P3E.4_K3.3_C3.2_[C-2A]_[T-1C]_H3.3_A3.1_F3.1_T3.2],> 2300
8,Id_i_S2_P3E.5_K3.1_C3.3_[T-3G]_[C-2T]_[T-1C]_H3.1_A3.1_F3.1_T3.2 (ssRNA) RNA: UUUGAUUAAUAUGAUAUCGUUCUUUCUGUCUGUAUAUAUAUUCUUUCUCGAUAUCAUAUUAAUCUUU,2.83
9,Id_i_S2_P3E.7_K3.3_C3.3_[T-3C]_[C-2T]_[T-1A]_H3.3_A3.1_F3.1_T3.2 (ssRNA) RNA: UUUGAUUAAUAUGAUAUCGUUCUUUCUCUAACACUAUAUAUUCUUUCUCGAUAUCAUAUUAAUCUUU,214
10,Id_i_S2_P3E.7_K3.3_C3.3_[T-3A]_[C-2T]_[T-1G]_H3.3_A3.1_F3.1_T3.2 (ssRNA) RNA: UUUGAUUAAUAUGAUAUCGUUCUUUCUAUGACACUAUAUAUUCUUUCUCGAUAUCAUAUUAAUCUUU,597
11,Id_i_S2_P3E.5_K3.1_C3.3_[T-3C]_[C-2T]_[T-1G]_H3.1_A3.1_F3.1_T3.2 (ssRNA) RNA: UUUGAUUAAUAUGAUAUCGUUCUUUCUCUGUGUAUAUAUAUUCUUUCUCGAUAUCAUAUUAAUCUUU,1.23
12,Id_i_S2_P3E.7_K3.3_C3.3_[T-3G]_[C-2T]_[T-1A]_H3.3_A3.1_F3.1_T3.2 (ssRNA) RNA: UUUGAUUAAUAUGAUAUCGUUCUUUCUGUAACACUAUAUAUUCUUUCUCGAUAUCAUAUUAAUCUUU,5.76
13,Id_i_S2_P3E.6_K3.2_C3.3_[T-3A]_[C-2A]_[T-1C]_H3.2_A3.1_F3.1_T3.2 (ssRNA) RNA: UUUGAUUAAUAUGAUAUCGUUCUUUCUAACUAUAUAUAUAUUCUUUCUCGAUAUCAUAUUAAUCUUU,105
14,Id_i_S2_P3E.7_K3.3_C3.3_[T-3C]_[C-2A]_[T-1A]_H3.3_A3.1_F3.1_T3.2 (ssRNA) RNA: UUUGAUUAAUAUGAUAUCGUUCUUUCUCAAACACUAUAUAUUCUUUCUCGAUAUCAUAUUAAUCUUU,222
15,Id_i_S2_P3E.5_K3.1_C3.3_[T-3C]_[C-2T]_[T-1A]_H3.1_A3.1_F3.1_T3.2 (ssRNA) RNA: UUUGAUUAAUAUGAUAUCGUUCUUUCUCUAUGUAUAUAUAUUCUUUCUCGAUAUCAUAUUAAUCUUU,3.83
16,Id_i_S2_P3E.7_K3.3_C3.3_[T-3A]_[C-2T]_[T-1A]_H3.3_A3.1_F3.1_T3.2 (ssRNA) RNA: UUUGAUUAAUAUGAUAUCGUUCUUUCUAUAACACUAUAUAUUCUUUCUCGAUAUCAUAUUAAUCUUU,708
17,Id_i_S2_P3E.6_K3.2_C3.3_[T-3A]_[C-2T]_[T-1C]_H3.2_A3.1_F3.1_T3.2 (ssRNA) RNA: UUUGAUUAAUAUGAUAUCGUUCUUUCUAUCUAUAUAUAUAUUCUUUCUCGAUAUCAUAUUAAUCUUU,170
18,Id_i_S2_P3E.5_K3.1_C3.3_[T-3C]_[C-2T]_[T-1C]_H3.1_A3.1_F3.1_T3.2 (ssRNA) RNA: UUUGAUUAAUAUGAUAUCGUUCUUUCUCUCUGUAUAUAUAUUCUUUCUCGAUAUCAUAUUAAUCUUU,0.917
19,Id_i_S2_P3E.6_K3.2_C3.3_[T-3C]_[C-2G]_[T-1C]_H3.2_A3.1_F3.1_T3.2 (ssRNA) RNA: UUUGAUUAAUAUGAUAUCGUUCUUUCUCGCUAUAUAUAUAUUCUUUCUCGAUAUCAUAUUAAUCUUU,68.2

row,Binder,Kd [nM]
1,Id_i_S2_P3E.6_K3.2_C3.3_[T-3C]_[C-2T]_[T-1C]_H3.2_A3.1_F3.1_T3.2 (ssRNA) RNA: UUUGAUUAAUAUGAUAUCGUUCUUUCUCUCUAUAUAUAUAUUCUUUCUCGAUAUCAUAUUAAUCUUU,35
2,Id_i_S2_P3E.7_K3.3_C3.3_[T-3C]_[C-2A]_[T-1C]_H3.3_A3.1_F3.1_T3.2 (ssRNA) RNA: UUUGAUUAAUAUGAUAUCGUUCUUUCUCACACACUAUAUAUUCUUUCUCGAUAUCAUAUUAAUCUUU,482
3,Id_i_S2_P3E.5_K3.1_C3.3_[T-3C]_[C-2A]_[T-1C]_H3.1_A3.1_F3.1_T3.2 (ssRNA) RNA: UUUGAUUAAUAUGAUAUCGUUCUUUCUCACUGUAUAUAUAUUCUUUCUCGAUAUCAUAUUAAUCUUU,1.09
4,Id_i_S2_P3E.7_K3.3_C3.3_[T-3C]_[C-2A]_[T-1G]_H3.3_A3.1_F3.1_T3.2 (ssRNA) RNA: UUUGAUUAAUAUGAUAUCGUUCUUUCUCAGACACUAUAUAUUCUUUCUCGAUAUCAUAUUAAUCUUU,610
5,Id_i_S2_P3E.5_K3.1_C3.3_[T-3A]_[C-2A]_[T-1C]_H3.1_A3.1_F3.1_T3.2 (ssRNA) RNA: UUUGAUUAAUAUGAUAUCGUUCUUUCUAACUGUAUAUAUAUUCUUUCUCGAUAUCAUAUUAAUCUUU,1.39
6,Id_i_S2_P3E.6_K3.2_C3.3_[T-3C]_[C-2A]_[T-1C]_H3.2_A3.1_F3.1_T3.2 (ssRNA) RNA: UUUGAUUAAUAUGAUAUCGUUCUUUCUCACUAUAUAUAUAUUCUUUCUCGAUAUCAUAUUAAUCUUU,68.5
7,Id_i_S2_P3E.6_K3.2_C3.3_[T-3G]_[C-2G]_[T-1C]_H3.2_A3.1_F3.1_T3.2 (ssRNA) RNA: UUUGAUUAAUAUGAUAUCGUUCUUUCUGGCUAUAUAUAUAUUCUUUCUCGAUAUCAUAUUAAUCUUU,1300
8,Id_i_S2_P3E.6_K3.2_C3.3_[T-3A]_[C-2G]_[T-1C]_H3.2_A3.1_F3.1_T3.2 (ssRNA) RNA: UUUGAUUAAUAUGAUAUCGUUCUUUCUAGCUAUAUAUAUAUUCUUUCUCGAUAUCAUAUUAAUCUUU,528
9,Id_i_S2_P3E.5_K3.1_C3.3_[T-3A]_[C-2G]_[T-1C]_H3.1_A3.1_F3.1_T3.2 (ssRNA) RNA: UUUGAUUAAUAUGAUAUCGUUCUUUCUAGCUGUAUAUAUAUUCUUUCUCGAUAUCAUAUUAAUCUUU,2.13
10,Id_i_S2_P3E.5_K3.1_C3.3_[T-3A]_[C-2T]_[T-1C]_H3.1_A3.1_F3.1_T3.2 (ssRNA) RNA: UUUGAUUAAUAUGAUAUCGUUCUUUCUAUCUGUAUAUAUAUUCUUUCUCGAUAUCAUAUUAAUCUUU,1.7
11,Id_i_S2_P3E.7_K3.3_C3.3_[T-3A]_[C-2G]_[T-1C]_H3.3_A3.1_F3.1_T3.2 (ssRNA) RNA: UUUGAUUAAUAUGAUAUCGUUCUUUCUAGCACACUAUAUAUUCUUUCUCGAUAUCAUAUUAAUCUUU,429
12,ACAAACAAUAUAUAUAUAACAAAC (ssRNA) [Id_ii_S3_P3E.3_K3.2_C3.2_[C-2A]_[T-1A]_H3.2_A3.1_F3.1_T3.2],531
13,ACAAACGCACACUAUAUAACAAAC (ssRNA) [Id_ii_S3_P3E.4_K3.3_C3.2_[C-2G]_[T-1C]_H3.3_A3.1_F3.1_T3.2],1830
14,ACAAACAGACACUAUAUAACAAAC (ssRNA) [Id_ii_S3_P3E.4_K3.3_C3.2_[C-2A]_[T-1G]_H3.3_A3.1_F3.1_T3.2],> 2300
15,ACAAACGGUAUAUAUAUAACAAAC (ssRNA) [Id_ii_S3_P3E.3_K3.2_C3.2_[C-2G]_[T-1G]_H3.2_A3.1_F3.1_T3.2],550
16,Id_ii_S2_P3E.4_K3.3_C3.2_[C-2T]_[T-1C]_H3.3_A3.1_F3.1_T3.2 (ssRNA) RNA: UUUGAUUAAUAUGAUAUCGUUCUUUCUUCACACUAUAUAUUCUUUCUCGAUAUCAUAUUAAUCUUU,222
17,Id_ii_S2_P3E.4_K3.3_C3.2_[C-2A]_[T-1A]_H3.3_A3.1_F3.1_T3.2 (ssRNA) RNA: UUUGAUUAAUAUGAUAUCGUUCUUUCUAAACACUAUAUAUUCUUUCUCGAUAUCAUAUUAAUCUUU,238
18,Id_ii_S2_P3E.4_K3.3_C3.2_[C-2T]_[T-1A]_H3.3_A3.1_F3.1_T3.2 (ssRNA) RNA: UUUGAUUAAUAUGAUAUCGUUCUUUCUUAACACUAUAUAUUCUUUCUCGAUAUCAUAUUAAUCUUU,215
19,Id_ii_S2_P3E.4_K3.3_C3.2_[C-2A]_[T-1C]_H3.3_A3.1_F3.1_T3.2 (ssRNA) RNA: UUUGAUUAAUAUGAUAUCGUUCUUUCUACACACUAUAUAUUCUUUCUCGAUAUCAUAUUAAUCUUU,242
